Experiment [1] deals with T1, human FcγRIIB-Ile232 on CHO-K1 cells (human, UniProt P31994 43-310).
T1 construct: whole, on cells; also called CHO-K1-huFcγRIIB-Ile232; CHO-K1-huFcγRIIB
T1 sequence (looked up): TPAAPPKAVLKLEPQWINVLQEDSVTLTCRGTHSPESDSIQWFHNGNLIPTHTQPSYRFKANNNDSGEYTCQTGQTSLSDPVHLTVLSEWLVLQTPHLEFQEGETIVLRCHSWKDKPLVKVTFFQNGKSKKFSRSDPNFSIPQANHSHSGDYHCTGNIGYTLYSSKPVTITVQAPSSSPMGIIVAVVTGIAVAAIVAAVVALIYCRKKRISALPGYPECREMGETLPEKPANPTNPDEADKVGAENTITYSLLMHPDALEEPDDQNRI
The experiment in a line: flow cytometry on CHO-huFcγRIIB cells, anti-human Fc F(ab')2. On the procedure: (§1) The plate was mixed and incubated in the dark for 2 hours at 4° C.
For orientation: Flow cytometry measures light scatter and fluorescence of single cells or particles in a stream.

In a further experiment the target is T2, huCD137-C6His (human, UniProt Q07011 24-186).
T2 construct: Immobilised by amine coupling on the sensor chip; also called human CD137 protein (Biacore ligand); not shown: C-terminal 6xHis tag by the name C6His
The experiment can be described thus: SPR (Biacore T200), huCD137-C6His immobilised, antibody as analyte, 1:1 model, 25 °C. The procedure: Flow cells of a CMS sensor chip (GE Healthcare Life Sciences) were activated with freshly mixed 50 mmol/L NHS and 200 mmol/L EDC for 420 seconds (10 μL/min). Then, huCD137-C6His in 10 mmol/L NaAC (pH 5.0) was injected onto the activated flow cell (10 μL/min) with HBS-EP (10 mM HEPES, 150 mM NaCl, 3 mM EDTA and 0.05% P20, pH 7.4) as the running buffer. The remaining active coupling sites were blocked with a 420 second injection of 1 mol/L ethanolamine The measurement was performed under 25° C., and HBS-EP was used as the running buffer. An injection of a tested analyte and surface regeneration of the CMS sensor chip were included in each running cycle. […] Buffer flow was maintained for approximately 180 seconds for dissociation. To remove the tested antibodies, an injection of 10 mM glycine-HCl for approximately 30 seconds was used for regeneration. The above procedures were repeated for each concentration of serially diluted tested antibody. The raw data of the surface plasmon resonance experiments were evaluated using Biacore T200 evaluation software 3.1 with a 1:1 binding model. Flow cell 1 was used as the reference flow cell.

For experiment [2], the target named is T3, recombinant cynomolgus monkey CD137 receptor protein (cynomolgus monkey, UniProt A9YYE7 24-186).
T3 construct: Coated on ELISA plates; also called Cyno CD137
The experiment can be described thus: ELISA, recombinant cynomolgus CD137 protein coated, antibody titrated. On the procedure: The human or cynomolgus monkey CD137 receptor protein was diluted in DPBS to 1 μg/mL, and then coated onto an ELISA plate (Corning, Catalog number: 9018, high binding) with a volume of 100 μL (0.1 μg) or 50 μL (0.05 μg) per well, and incubated at 4° C. overnight. The plate was decanted and washed once; assay diluent was added 200 μL/well. After a one-hour incubation at room temperature, the plate was washed with PBST one time. […] The plate was incubated one hour at room temperature and then washed three times with PBST. Goat anti-human IgG-H+L HRP conjugated at 1:100,000 dilution was added to the plate at 100 μL/well. The plate was then incubated one hour at room temperature followed by washing with PBST four times. The TMB substrate solution was added at 100 μL/well. The color was allowed to develop for 15 minutes, and was stopped with 100 μL/well 2N H₂SO₄. Absorbance at 450 nm and 620 nm was determined by a Tecan F200 Pro reader.
Graphpad 7.0, “[Agonist] vs. response—Variable slope (four parameters)” was used to plot the binding data and calculate binding EC₅₀ values.

Experiment [3] concerns the target T4, human CD137 on cells (human, UniProt Q07011 24-255).
T4 construct: whole, on cells; also called CHO-human CD137; CHO cells over-expressing human CD137
The experiment in a line: flow cytometry on human PBMC pre-activated with anti-CD3, gate on CD8+ T cells (endogenous CD137).
Procedure: To obtain activated T cells in human PBMC, a 24-well plate was coated with 300 μL DPBS containing 2 μg/mL AffiniPure goat anti-mouse IgG, Fcγ fragment specific at 4° C. overnight. The plate was washed 3 times with DPBS. The antibody OKT3 was added to the plate at 1 μg/mL, 100 μL/well. The plate was incubated at 37° C. for 1 hour. A freshly thawed vial of human PBMCs was transferred into a 50 mL tube containing 25 mL pre-warmed culture medium (RPMI1640 containing 10% FBS), and spun at 250 g for 10 min The cell pellet was resuspended in 2 mL complete culture medium (culture medium containing 50 uM 2-Me) and the cell density was adjusted to 3.3*10\hat{ }6 cells/mL in the complete culture medium and then 900 μL/well cell suspension was transferred to the plate. The culture was incubated at 37° C. with 5% CO₂ for about 48 hours. After the incubation, the cells were harvested and washed once with DPBS. The cell pellet was resuspended in cold assay buffer and the cell density was adjusted to 2*10\hat{ }6 cells/mL. 100 μL of the cell suspension was transferred to a 96-well v-bottom plate. […] The plate was incubated in the dark for 30 minutes at 4° C. […] After incubation in the dark for 5 minutes at 4° C., the cells were analyzed on the flow cytometer immediately.

The target of experiment [4] is T5, recombinant human CD137 receptor protein (human, UniProt Q07011 24-186).
T5 construct: Coated on ELISA plates; also called recombinant human CD137 protein
The experiment in a line: ELISA, clone 3712-IgG1v coated, huCD137 titrated (EC50 is a concentration of the CD137 protein); full sigmoid, plateau about 1.9. A general note: An ELISA detects its analyte on a solid surface through an enzyme-linked reagent.

Experiment [5] has as its target T6, human FcγRIIA-His131 on CHO-K1 cells (human, UniProt P12318 34-317).
T6 construct: whole, on cells; Allotype His131; also called CHO-K1-huFcγRIIA-His131; CHO-huFcγRIIA-H131
T6 sequence (looked up): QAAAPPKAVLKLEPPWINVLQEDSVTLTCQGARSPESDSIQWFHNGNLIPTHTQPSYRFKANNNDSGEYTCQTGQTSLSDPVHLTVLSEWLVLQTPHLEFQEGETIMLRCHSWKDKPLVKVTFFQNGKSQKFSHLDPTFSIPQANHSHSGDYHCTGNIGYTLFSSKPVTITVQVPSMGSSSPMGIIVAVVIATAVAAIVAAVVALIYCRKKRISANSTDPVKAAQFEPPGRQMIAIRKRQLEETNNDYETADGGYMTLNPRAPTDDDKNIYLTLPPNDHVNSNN
The experiment in a line: flow cytometry on CHO-huFcγRIIA-H131 cells, PE anti-human Fc F(ab')2. On the procedure: as §1

For experiment [6], the target named is T4, human CD137 on cells. The experiment can be described thus: flow cytometry on CHO-human CD137 cells, PE anti-human IgG-Fc. The procedure:
CHO cells over-expressing human or cynomolgus monkey CD137 and CHO parental cells were harvested by centrifugation at 1000 g for 3 minutes. The cells were resuspended in ice cold assay buffer at 2*10\hat{ }6/mL and transferred to 96-well V-bottom plate with 100 μL/well. […] The plate was mixed and incubated in the dark for 2 hours at 4° C. The cells were washed 3 times by centrifugation at 1000 g for 3 min and resuspended in ice cold assay buffer containing goat F(ab′)₂ anti-human IgG-Fc (PE), 100 μL/well. The plate was incubated in the dark for another 1 hour at 4° C. The cells were washed 2 times by centrifugation at 1000 g for 3 min and resuspended in ice cold assay buffer containing 2% PFA. The cells were then subjected to the flow cytometer immediately.
Mean fluorescence intensity (MFI) was calculated from the total cell population in the FCM experiments. Graphpad 7.0, “[Agonist] vs. response—Variable slope (four parameters)” was used to plot the binding MFI in dose response and to calculate FCM binding EC₅₀ values.
Target sequence in this assay (Q07011 24-255): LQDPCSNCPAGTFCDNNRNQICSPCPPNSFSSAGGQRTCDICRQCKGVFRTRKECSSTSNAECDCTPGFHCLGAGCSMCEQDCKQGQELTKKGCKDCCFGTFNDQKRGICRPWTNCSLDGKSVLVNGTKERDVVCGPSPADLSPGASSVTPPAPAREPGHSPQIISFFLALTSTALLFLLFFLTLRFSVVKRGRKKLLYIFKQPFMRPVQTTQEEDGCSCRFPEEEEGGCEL

T2 sequence (Q07011 24-186): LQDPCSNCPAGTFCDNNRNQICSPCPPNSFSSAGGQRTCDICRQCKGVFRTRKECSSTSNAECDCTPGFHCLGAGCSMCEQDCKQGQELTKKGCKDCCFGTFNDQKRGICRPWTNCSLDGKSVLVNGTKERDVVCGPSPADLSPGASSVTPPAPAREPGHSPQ
T5 sequence (Q07011 24-186 limits assumed): as the sequence (Q07011 24-186) above
T3 sequence (A9YYE7 entry or part of it): as the sequence (Q07011 24-186) above, with P4L, N19S, R50K, T66I, P67S, F69Y, G75E, V149A counted along it

B1: Clone 3712-IgG1v (IgG1v/kappa) (antibody)
heavy: QVQLVQSGAEVKKPGASVKVSCKASGYTFAGFEMHWVRQAPGQGLEWMGAIDPKTGGTDYNQKFKDRVTMTRDTSISTAYMELSRLRSDDTAVYYCARDLGYFDVWGQGTLVTVSSASTKGPSVFPLAPSSKSTSGGTAALGCLVKDYFPEPVTVSWNSGALTSGVHTFPAVLQSSGLYSLSSVVTVPSSSLGTQTYICNVNHKPSNTKVDKKVEPKSCDKTHTCPPCPAPELLGPSVFLFPPKPKDTLMISRTPEVTCVVVDVEHEDPEVKFNWYVDGVEVHNAKTKPREEQYNSTYRVVSVLTVLHQDWLNGKEYKCKVSNKALPAPIEKTISKAKGQPREPQVYTLPPSREEMTKNQVSLTCLVKGFYPSDIAVEWESNGQPENNYKTTPPVLDSDGSFFLYSKLTVDKSRWQQGNVFSCSVMHEALHNHYTQKSLSLSPGK
light: DIQMTQSPSSLSASVGDRVTITCRASQDIRSNLNWYQQKPGGAVKLLIYYTSRLHSGVPSRFSGSGSGTDYTLTISSLQPEDFATYFCQQSEKLPRTFGGGTKVEIRRTVAAPSVFIFPPSDEQLKSGTASVVCLLNNFYPREAKVQWKVDNALQSGNSQESVTEQDSKDSTYSLSSTLTLSKADYEKHKVYACEVTHQGLSSPVTKSFNRGEC
notes: copies: 2 + 2
As for B1, the binding result in experiment [1] is reported as “binds”; in experiment [5] it was “no binding (tested: 100 µg/mL)”. The same molecule had an equilibrium dissociation constant (Kd) in the experiment with huCD137-C6His of 18.9 nM. This molecule returned an off-rate (koff) in the experiment with huCD137-C6His of 0.0138 s⁻¹. The molecule further yielded an on-rate constant (kon) with huCD137-C6His of 730000 M⁻¹ s⁻¹. In addition, the results for the concentration for a half-maximal effect (EC50 (read off the curve)) (in experiment [2]; in the experiment with human CD137 on cells [3]; with human CD137 on cells [6]) were roughly 0.05 µg/mL, roughly 0.03 µg/mL and roughly 0.05 µg/mL, respectively. The EC50 in experiment [4] worked out at 0.0562 µg/mL.

For orientation: Kd means a measure of binding affinity in units of concentration. The term koff denotes the first-order rate constant of dissociation. As a reminder, the kon is the second-order rate constant of association. The EC50 (read off the curve) is the concentration giving half of the maximal effect. One may read the EC50 as the concentration needed to bring the measured effect to its halfway point.

Values taken from patent US20210246218A1 (LYVGEN BIOPHARMA SUZHOU, published 2021).
